# Laboratory results from patent US20240400715A1 (VIBRANT PHARMA, published 2024).
# Where a chain is given by its changes, count along the chain named. Where “and” joins values, the source holds several entries; their conditions need not be identical. Identical values can stand only once.
# B1: 305 (TA6), configuration of FIG. 1W (bispecific antibody, IgG4)
# heavy: EVQLVQSGAEVKKPGASVKVSCKASGYTFTNYYIHWVRQAPGQGLEWIGWIYPGDGNTKYNEKFKGRATLTADTSTSTAYLELSSLRSEDTAVYYCARDSYSNYYFDYWGQGTLVTVSSASTKGPSVFPLAPCSRSTSESTAALGCLVKDYFPEPVTVSWNSGALTSGVHTFPAVLQSSGLYSLSSVVTVPSSSLGTKTYTCNVDHKPSNTKVDKRVESKYGPPCPPCPAPEAAGGPSVFLFPPKPKDTLMISRTPEVTCVVVDVSQEDPEVQFNWYVDGVEVHNAKTKPREEQFNSTYRVVSVLTVLHQDWLNGKEYKCKVSNKGLPSSIEKTISKAKGQPREPQVYTLPPCQEEMTKNQVSLWCLVKGFYPSDIAVEWESNGQPENNYKTTPPVLDSDGSFFLYSRLTVDKSRWQEGNVFSCSVMHEALHNHYTQKSLSLSL
# chain: EVQLVESGGGFVQAGESLTLSCTSSTLTFTPYRMAWYRQAPGKQRDLVADISSGDGRTTNYADFAKGRFTISRDNIKNTVFLRMTNLKPEDTAVYYCNTFVSFVGIARSWGQGTQVTVSSESKYGPPCPPCPAPEAAGGPSVFLFPPKPKDTLMISRTPEVTCVVVDVSQEDPEVQFNWYVDGVEVHNAKTKPREEQFNSTYRVVSVLTVLHQDWLNGKEYKCKVSNKGLPSSIEKTISKAKGQPREPQVCTLPPSQEEMTKNQVSLSCAVKGFYPSDIAVEWESNGQPENNYKTTPPVLDSDGSFFLVSRLTVDKSRWQEGNVFSCSVMHEALHNRFTQKSLSLSL
# light: DIVMTQSPDSLAVSLGERATINCKSSQSLLNSRTRKNYLAWYQQKPGQPPKLLIYWASTRESGVPDRFSGSGSGTDFTLTISSLQAEDVAVYYCTQSFILRTFGQGTKVEIK
# notes: chains put together from VH/VL, CH1, knob-Fc; IgG4, kappa; also called CEA-CD3 bispecific antibody 305; not shown: kappa light chain constant domain (CL)
# B2: Fab-Knob+Hole-CEA (103) (bispecific antibody, human IgG4 S228P, kappa, F234A L235A)
# heavy: EVKLLESGGGLVQPKGSLKLSCAASGFTFNTYAMNWVRQAPGKGLEWVARIRSKYNNYATYYADSVKDRFTISRDDSQSILYLQMNNLKTEDTAMYYCVRHGNFGNSYVSWFAYWGQGTLVTVSSASTKGPSVFPLAPCSRSTSESTAALGCLVKDYFPEPVTVSWNSGALTSGVHTFPAVLQSSGLYSLSSVVTVPSSSLGTKTYTCNVDHKPSNTKVDKRVESKYGPPCPPCPAPEAAGGPSVFLFPPKPKDTLMISRTPEVTCVVVDVSQEDPEVQFNWYVDGVEVHNAKTKPREEQFNSTYRVVSVLTVLHQDWLNGKEYKCKVSNKGLPSSIEKTISKAKGQPREPQVYTLPPCQEEMTKNQVSLWCLVKGFYPSDIAVEWESNGQPENNYKTTPPVLDSDGSFFLYSRLTVDKSRWQEGNVFSCSVMHEALHNHYTQKSLSLSL
# chain: ESKYGPPCPPCPAPEAAGGPSVFLFPPKPKDTLMISRTPEVTCVVVDVSQEDPEVQFNWYVDGVEVHNAKTKPREEQFNSTYRVVSVLTVLHQDWLNGKEYKCKVSNKGLPSSIEKTISKAKGQPREPQVCTLPPSQEEMTKNQVSLSCAVKGFYPSDIAVEWESNGQPENNYKTTPPVLDSDGSFFLVSRLTVDKSRWQEGNVFSCSVMHEALHNRFTQKSLSLSLGGGGSGGGGSEVQLVESGGGFVQAGESLTLSCTSSTLTFTPYRMAWYRQAPGKQRDLVADISSGDGRTTNYADFAKGRFTISRDNIKNTVFLRMTNLKPEDTAVYYCNTFVSFVGIARSWGQGTQVTVSS
# light: QAVVTQESALTTSPGETVTLTCRSSTGAVTTSNYANWVQEKPDHLFTGLIGGTNKRAPGVPARFSGSLIGDKAALTITGAQTEDEAIYFCALWYSNLWVFGGGTKVEIKRTVAAPSVFIFPPSDEQLKSGTASVVCLLNNFYPREAKVQWKVDNALQSGNSQESVTEQDSKDSTYSLSSTLTLSKADYEKHKVYACEVTHQGLSSPVTKSFNRGEC
# notes: Anti-CD3 TA1 Fab + anti-CEA VHH C17 on human IgG4 knob-into-hole Fc
# B3: Knob+CEA-Fab-Hole (204) (bispecific antibody, human IgG4 S228P, kappa, F234A L235A)
# chain: ESKYGPPCPPCPAPEAAGGPSVFLFPPKPKDTLMISRTPEVTCVVVDVSQEDPEVQFNWYVDGVEVHNAKTKPREEQFNSTYRVVSVLTVLHQDWLNGKEYKCKVSNKGLPSSIEKTISKAKGQPREPQVYTLPPCQEEMTKNQVSLWCLVKGFYPSDIAVEWESNGQPENNYKTTPPVLDSDGSFFLYSRLTVDKSRWQEGNVFSCSVMHEALHNHYTQKSLSLSL
# heavy: B2 heavy with Y354C, C359S, W371S, L373A, Y412V, H440R, Y441F
# light: EVQLVESGGGFVQAGESLTLSCTSSTLTFTPYRMAWYRQAPGKQRDLVADISSGDGRTTNYADFAKGRFTISRDNIKNTVFLRMTNLKPEDTAVYYCNTFVSFVGIARSWGQGTQVTVSSGGGGSGGGGSQAVVTQESALTTSPGETVTLTCRSSTGAVTTSNYANWVQEKPDHLFTGLIGGTNKRAPGVPARFSGSLIGDKAALTITGAQTEDEAIYFCALWYSNLWVFGGGTKVEIKRTVAAPSVFIFPPSDEQLKSGTASVVCLLNNFYPREAKVQWKVDNALQSGNSQESVTEQDSKDSTYSLSSTLTLSKADYEKHKVYACEVTHQGLSSPVTKSFNRGEC
# notes: VHH linked to the VL of the Fab; human IgG4 knob-into-hole Fc
# B4: CEA-Knob+Fab-Hole (104) (bispecific antibody, human IgG4 S228P, kappa, F234A L235A)
# chain: B1 chain with C251Y, S256C, S268W, A270L, V309Y, R337H, F338Y
# heavy: B2 heavy with Y354C, C359S, W371S, L373A, Y412V, H440R, Y441F
# light: B2 light
# notes: as for B2
# B5: CEA-Fab-Knob-+Hole (203) (bispecific antibody, human IgG4 S228P, kappa, F234A L235A)
# heavy: B2 heavy
# chain: B3 chain with Y131C, C136S, W148S, L150A, Y189V, H217R, Y218F
# light: B3 light
# notes: as for B3
# B6: Knob-CEA+Fab-Hole (105) (bispecific antibody, human IgG4 S228P, kappa, F234A L235A)
# chain: B2 chain with C131Y, S136C, S148W, A150L, V189Y, R217H, F218Y
# heavy: B2 heavy with Y354C, C359S, W371S, L373A, Y412V, H440R, Y441F
# light: B2 light
# notes: as for B2
# B7: CEA-Fab-Knob-+Hole (205) (bispecific antibody, human IgG4 S228P, kappa, F234A L235A)
# heavy: EVQLVESGGGFVQAGESLTLSCTSSTLTFTPYRMAWYRQAPGKQRDLVADISSGDGRTTNYADFAKGRFTISRDNIKNTVFLRMTNLKPEDTAVYYCNTFVSFVGIARSWGQGTQVTVSSGGGGSGGGGSEVKLLESGGGLVQPKGSLKLSCAASGFTFNTYAMNWVRQAPGKGLEWVARIRSKYNNYATYYADSVKDRFTISRDDSQSILYLQMNNLKTEDTAMYYCVRHGNFGNSYVSWFAYWGQGTLVTVSSASTKGPSVFPLAPCSRSTSESTAALGCLVKDYFPEPVTVSWNSGALTSGVHTFPAVLQSSGLYSLSSVVTVPSSSLGTKTYTCNVDHKPSNTKVDKRVESKYGPPCPPCPAPEAAGGPSVFLFPPKPKDTLMISRTPEVTCVVVDVSQEDPEVQFNWYVDGVEVHNAKTKPREEQFNSTYRVVSVLTVLHQDWLNGKEYKCKVSNKGLPSSIEKTISKAKGQPREPQVYTLPPCQEEMTKNQVSLWCLVKGFYPSDIAVEWESNGQPENNYKTTPPVLDSDGSFFLYSRLTVDKSRWQEGNVFSCSVMHEALHNHYTQKSLSLSL
# chain: B3 chain with Y131C, C136S, W148S, L150A, Y189V, H217R, Y218F
# light: B2 light
# notes: VHH linked to the VH of the Fab; human IgG4 knob-into-hole Fc
# Molecular target: T1, human CD3ε/δ (ACRO systems, CDD-H52W1) (human, UniProt P07766 23-126; P04234 22-105)
# T1 construct: Bought protein; also called human CD3ϵ/CD3δ; human CD3 epsilon/delta antigen
# Assay: BLI, antibody captured, antigen in solution;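 note: bispecific antibodies captured on AHIC biosensors to a 1.5 nm loading signal, in PBST with 0.02% detergent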
# Description: The bispecific antibodies were diluted to 5 ag/ml, and 1.5 nm protein was coupled to the surface of the AHIC sensor chip through 0.02% PBST.
Kd [nM],koff [s⁻¹],kon [M⁻¹ s⁻¹],Binder
2.85,0.00087,324000,B1
0.662,0.000233,352000,B2
2.91,0.000571,197000,B3
0.839,0.0003,357000,B4
2.51,0.000621,248000,B5
0.696,0.000256,367000,B6
2.38,0.000666,279000,B7

# Molecular target: T2, human CD3 on Jurkat cells (human, UniProt P07766 23-207; P04234 22-171; P09693 23-182)
# T2 construct: whole, on cells; CD3 complex as on Jurkat (Clone E6-1) cells; also called CD3 expressing cells (Jurkat)
# Assay: FACS, Jurkat cells;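 note: flow cytometric binding of bispecific antibodies to Jurkat T cells, threefold serial dilutions incubated half an hour in the cold, EC50 taken from the fitted binding curve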
# Description: The binding of the bispecific antibodies was tested on the CA expressing human lung adenocarcinoma cell line (H1573) and the CD3 expressing immortalized T lymphocyte line (Jurkat). The steps are as follows: the cells were harvested, counted, and resuspended in FACS buffer (PBS containing 0.1% BSA) at 2×10⁶ cells/ml. 100 μl of cell suspension was incubated in a V-bottom 96-well plate at 4° C. with 3-fold serial dilutions of bispecific antibodies (20 μg/ml-0.009 μg/ml) for 30 minutes; washed twice with pre-cooled FACS buffer. […] GraphPadPrism was used to obtain the binding curve.
row,EC50,Binder
1,0.267 µg/mL and 2.05 nM,B1
2,0.848 µg/mL and 6.52 nM,B2
3,1.36 µg/mL and 10.4 nM,B3
4,3.35 µg/mL and 25.8 nM,B4
5,0.29 µg/mL and 2.23 nM,B5
6,0.85 µg/mL and 6.54 nM,B6
7,0.195 µg/mL and 1.5 nM,B7
